According to paper PMC9001700 (Communications Biology, 2022):

Experiments:
Conditions in all cases: both partners purified
[1] = target: T1, HCoV-HKU1 S-2P-T4f-3C-His8-Strep2x2 (stabilized spike ectodomain) (HCoV-HKU1, isolate  (isolate …, UniProt Q0ZME7, stabilised)); test: BLI
T1 construct: also called HCoV-HKU1-S2P.his; stabilized spike ectodomain from HCoV-HKU1; source: 293E cells, purified (Ni-NTA, SEC on superose 6)

[2] = target: T2, HCoV-OC43 S-2P-T4f-3C-His8-Strep2x2 (stabilized spike ectodomain) (HCoV-OC43, strain , UniProt P36334, stabilised); test: BLI
T2 construct: also called HCoV-OC43-S2P.his; stabilized spike ectodomain from HCoV-OC43; source: 293E cells, purified (Ni-NTA, SEC on superose 6)

[3] = target: T3, synthetic stem helix peptide spanning residues 1149–1167 (SARS-CoV-2, UniProt P0DTC2); test: crystal structure
T3 chain: KEELDKYFKNHTSPDVDLG

B1: CV3-25 IgG (antibody, V domains shown)
VH: QVQLVESGAEVKKPGESLKISCKGSGYTFTRYWIGWVRQMPGKGLEWMGIIYPGDSDTRYSPSFQGHVTISADKSISTAYLQWNSLKASDTAMYYCARLPQYCSNGVCQRWFDPWGQGTLVTVSS
VL: EIVLTQSPSSVSASVGDRVTITCRASQGISSWLAWYQQKPGKAPKLLIYAASSLQSGVPSRFSGSGSGTDFTLTISSLQPEDFATYYCQQGNSFPYTFGQGTNLEIK
notes: also called CV3-25 mAb; source: 293 cells, purified (protein A resin); copies: 2 + 2
[1]
  binding result: binds
[2]
  binding result: binds

B2: CV3-25 Fab (Fab, V domains shown)
VH: B1 VH
VL: B1 VL
notes: also called monovalent Fab
[3]
  binding result: binds
